In US20040115622A1:

These substances were tested against HLA-DR molecule encoded by the allele DRB1*0101 (human) (assay: competition ELISA vs biotinylated HA 306-318).

Row | Substance | IC50
1 | Nef4.2 peptide (positions 68-82 of the HIV-1 Nef protein, Bru strain) (from UniProt P03406 68-82) (peptide; other documents disagree on this pair) | 250 nM
2 | Nef4.1 peptide (positions 66-80 of the HIV-1 Nef protein, Bru strain) (from UniProt P03406 66-80) (peptide; other documents disagree on this pair) | 1500 nM
3 | Nef4 peptide (positions 66-94 of the HIV-1 Nef protein, Bru strain) (from UniProt P03406 66-94) (peptide; other documents disagree on this pair) | 55 nM
4 | Nef4.3 peptide (positions 72-86 of the HIV-1 Nef protein, Bru strain) (from UniProt P03406 72-86) (peptide; other documents disagree on this pair) | 2000 nM
5 | Nef4.6 peptide (positions 79-93 of the HIV-1 Nef protein, Bru strain) (from UniProt P03406 79-93) (peptide; other documents disagree on this pair) | 55 nM
6 | Nef4.5 peptide (positions 77-91 of the HIV-1 Nef protein, Bru strain) (from UniProt P03406 77-91) (peptide; other documents disagree on this pair) | 12 nM
7 | Nef4.4 peptide (positions 74-88 of the HIV-1 Nef protein, Bru strain) (from UniProt P03406 74-88) (peptide; other documents disagree on this pair) | 350 nM

The substances below were run against HLA-DR molecule encoded by the allele DRB5*0101 (human) (assay: competition ELISA vs biotinylated HA 306-318).

Row | Substance | IC50
8 | Nef4 peptide (positions 66-94 of the HIV-1 Nef protein, Bru strain) (from UniProt P03406 66-94) (peptide; other documents disagree on this pair) | 12 nM
9 | Nef4.3 peptide (positions 72-86 of the HIV-1 Nef protein, Bru strain) (from UniProt P03406 72-86) (peptide; other documents disagree on this pair) | 1500 nM
10 | Nef4.6 peptide (positions 79-93 of the HIV-1 Nef protein, Bru strain) (from UniProt P03406 79-93) (peptide; other documents disagree on this pair) | 45 nM
11 | Nef4.5 peptide (positions 77-91 of the HIV-1 Nef protein, Bru strain) (from UniProt P03406 77-91) (peptide; other documents disagree on this pair) | 28 nM
12 | Nef4.4 peptide (positions 74-88 of the HIV-1 Nef protein, Bru strain) (from UniProt P03406 74-88) (peptide; other documents disagree on this pair) | 700 nM

Each substance was assayed against HLA-DR molecule encoded by the allele DRB1*0401 (human) (assay: competition ELISA vs biotinylated HA 306-318).

Row | Substance | IC50
13 | Nef4 peptide (positions 66-94 of the HIV-1 Nef protein, Bru strain) (from UniProt P03406 66-94) (peptide; other documents disagree on this pair) | 45 nM
14 | Nef4.3 peptide (positions 72-86 of the HIV-1 Nef protein, Bru strain) (from UniProt P03406 72-86) (peptide; other documents disagree on this pair) | 2000 nM
15 | Nef4.6 peptide (positions 79-93 of the HIV-1 Nef protein, Bru strain) (from UniProt P03406 79-93) (peptide; other documents disagree on this pair) | 150 nM
16 | Nef4.5 peptide (positions 77-91 of the HIV-1 Nef protein, Bru strain) (from UniProt P03406 77-91) (peptide; other documents disagree on this pair) | 60 nM
17 | Nef4.4 peptide (positions 74-88 of the HIV-1 Nef protein, Bru strain) (from UniProt P03406 74-88) (peptide; other documents disagree on this pair) | 225 nM

Each substance was assayed against HLA-DR molecule encoded by the allele DRB1*1501 (human) (assay: competition ELISA vs biotinylated A3 152-166).

Row | Substance | IC50
18 | Nef4.2 peptide (positions 68-82 of the HIV-1 Nef protein, Bru strain) (from UniProt P03406 68-82) (peptide; other documents disagree on this pair) | 7000 nM
19 | Nef4 peptide (positions 66-94 of the HIV-1 Nef protein, Bru strain) (from UniProt P03406 66-94) (peptide; other documents disagree on this pair) | 750 nM
20 | Nef4.3 peptide (positions 72-86 of the HIV-1 Nef protein, Bru strain) (from UniProt P03406 72-86) (peptide; other documents disagree on this pair) | 1930 nM
21 | Nef4.5 peptide (positions 77-91 of the HIV-1 Nef protein, Bru strain) (from UniProt P03406 77-91) (peptide; other documents disagree on this pair) | 1330 nM
22 | Nef4.4 peptide (positions 74-88 of the HIV-1 Nef protein, Bru strain) (from UniProt P03406 74-88) (peptide; other documents disagree on this pair) | 667 nM

These substances were tested against HLA-DR molecule encoded by the allele DRB1*0701 (human) (assay: competition ELISA vs biotinylated YKL).

Row | Substance | IC50
23 | Nef4 peptide (positions 66-94 of the HIV-1 Nef protein, Bru strain) (from UniProt P03406 66-94) (peptide; other documents disagree on this pair) | 5000 nM

The substances below were run against HLA-DR molecule encoded by the allele DRB4*0101 (human) (assay: competition ELISA vs biotinylated E2/E168).

Row | Substance | IC50
24 | Nef4 peptide (positions 66-94 of the HIV-1 Nef protein, Bru strain) (from UniProt P03406 66-94) (peptide; other documents disagree on this pair) | 225 nM
25 | Nef4.3 peptide (positions 72-86 of the HIV-1 Nef protein, Bru strain) (from UniProt P03406 72-86) (peptide; other documents disagree on this pair) | 2430 nM
26 | Nef4.4 peptide (positions 74-88 of the HIV-1 Nef protein, Bru strain) (from UniProt P03406 74-88) (peptide; other documents disagree on this pair) | 550 nM
